assay: soluble on expression in E. coli; label from the status in PepcDB or PDB records

Row | Sequence | soluble on expression in E. coli
1 | MVVFGTTFFNFDSFIGKTDSIEIIGKSVFPYCYHNILPLLNDSGRYSLGDARRPLHETAVLVEDVVHTQLINLLQQAAEVSQLRGARVITPEDLLFLMRKDKKKLRRLLKYMFIRDYKSKIVKGIDEDDLLEDKLSGSNNANKRQKIAQDFLNSIDQTGELLAMFEDDEIDEVKQERMERAERQTRIMDSAQYAEFCESRQLSFSKKASKFRDWLDCSSMEIKPNVVAMEILAYLAYETVAQLVDLALLVRQDMVTKAGDPFSHAISATFIQYHNSAESTAACGVEAHSDAIQPCHIREAIRRYSHRIGPLSPFTNAYRRNGMAFLAC | not soluble
2 | MWAFPERFEGRHVRLEPLALAHLPAFLRHYDPEVYRFLSRAPVAPTEEALRAHLEGLLGEPGRVNWAILFGKEVAGRISVIAPEPEHAKLELGTMLFKPFWGSPANKEAKYLLLRHAFEVLRAERVQFKVDLRNERSQRALEALGAVREGVLRKNRRLPDGAFRDDVVYSVLKEEWPGVKARLEARLYGASGNP | soluble
3 | MWEPSKRLKPVPILPELKEIGEQLQAQREQAMIEWAQTGYVKKLKARLVGRIIHGLGAGHIRETSLTIHPVYGLPYIPASSVKGLVRHWFIEAYCEGEEKQLNEHEIGREIFGTQGNKGIVQFHDIFLIESLQLTGDVLAVHMKEYYEGNRAATDDQKPVPVSFWTVMATEVDIYLTANRSAPQNDEETVRLLEAAALWTQQALTEWGIGSKTSSGYGRFAEVYDVTEMEFLPIVQKEQVRLEQQKKEREMLEQ | not soluble
4 | MWLKVGGLLRGTGGQLGQTVGWPCGALGPGPHRWGPCGGSWAQKFYQDGPGRGLGEEDIRRAREARPRKTPRPQLSDRSRERKVPASRISRLANFGGLAVGLGLGVLAEMAKKSMPGGRLQSEGGSGLDSSPFLSEANAERIVQTLCTVRGAALKVGQMLSIQDNSFISPQLQHIFERVRQSADFMPRWQMLRVLEEELGRDWQAKVASLEEVPFAAASIGQVHQGLLRDGTEVAVKIQYPGIAQSIQSDVQNLLAVLKMSAALPAGLFAEQSLQALQQELAWECDYRREAACAQNFRQLLANDPFFRVPAVVKELCTTRVLGMELAGGVPLDQCQGLSQDLRNQICFQLLTLCLRELFEFRFMQTDPNWANFLYDASSHQVTLLDFGASREFGTEFTDHYIEVVKAAADGDRDCVLQKSRDLKFLTGFETKAFSDAHVEAVMILGEPFATQGPYDFGSGETARRIQDLIPVLLRHRLCPPPEETYALHRKLAGAFLACAHLRAHIACRDLFQDTYHRYWASRQPDAATAGSLPTKGDSWVDPS | not soluble
5 | MWQQKSFQQNEKGVLYLVPTPIGNLEDMTFRAIRILKEADLIAAEDTRQTKKLCNYFEIETPVMSYHEHNKEVSGKKILEKLDEGKTVALVSDAGMPCISDPGYDIVVEAVAEQYHVIPLPGANAALTALIASGLQTKQFYFYGFLQRNKKERKMELEKLRYVQTTMMFYEAPHRLDDTLISMQEVLGNREIVLCRELTKKFEEFIRGTVEEAIEWTKQNEVRGEFCILVAGSTEEPAPEEQWWESISVYNHIEHYINEKGMNSKEAIKTVAKDRDLSKRDVYQIYHVDKK | soluble
6 | MWRIELKHAVNWELKMKFFVLPELPTPDVVESGVWRRAIVLDGRAVAVMAYPESERTIVVEGNFENREWEAVRRKLVEYLGLQNPEELYRFMDGDEKLRMLKNRFYGFGRAGLMSMSVFEGIAKAIIQQQISFVVAEKLAAKIVGRFGDEVEWNGLKFYGFPTQEAILKAGVEGLRECGLSRRKAELIVEIAKEENLEELKEWGEEEAYEYLTSFKGIGRWTAELVLSIALGKNVFPADDLGVRRAVSRLYFNGEIQSAEKVREIARERFGRFARDILFYLFLYDRFFSKKTELV | soluble
7 | MWRRYPQVEEKLGWYSRVMRGEEPPKYRIVRTFEVGFDSEDDIRRALTEELWREHERVAGEFRRLFRSLREGGSYEGDIKDARPSLMDVKVELVRRLASPCELCERRCRVERAKSRRGACRLAWEVYVHSAFLHLGEEAPLVPSGTIFYGGCNFTCVFCQNWDVSQWKARDAHIVTPRRLGEIQDRLAEAGARNINHVGGDPVPSLHVIVESMKYASHLKPQLWNSNMYMTLEALDILVDLIDIWLPDLKFGNDRCAMRLSAVPRYWEVTTRNILLAAEHGDMIIRHLVMPGHVECCTKPVLRWIAENLGDRVLVNIMDQYHPDNLVLRMPHKWPEIARRPSRREIEEAWRYAEQLGLDWEPVTK | not soluble
8 | MWYRALFPGATWRIPAKEGKSIYLTFDDGPIPEITPWVLDTLDELGVKATFFCVADNVRRYPDLFAEIQRRGHQVGNHTFHHLQGLKVRTRTYLKDVEEADRLINSRFFRPPHGHLRFMQTLLLSNHYDIIMWDVITRDYNARLSPDTVFGSVVRYARNGSIITFHDSLKAAPNMQQAMPRAVRWLLDEGYTFKCLGDPAD | not soluble
9 | MYAVTFDLDTNCLNENAVNLSKVYSDIRKFMEQHGFKWQQGSVYFGDETINAVTCVATVQILAKQIPSFAVCVKDVRMLKIEENNDLMPAIKIVL | not soluble
10 | MYDWFSEMRKKDPVYYDGNIWQVFSYRYTKEVLNNFSKFSSDLTGYHERLEDLRNGKIRFDIPTRYTMLTSDPPLHDELRSMSADIFSPQKLQTLETFIRETTRSLLDSIDPREDDIVKKLAVPLPIIVISKILGLPIEDKEKFKEWSDLVAFRLGKPGEIFELGKKYLELIGYVKDHLNSGTEVVSRVVNSNLSDIEKLGYIILLLIAGNETTTNLISNSVIDFTRFNLWQRIREENLYLKAIEEALRYSPPVMRTVRKTKERVKLGDQTIEEGEYVRVWIASANRDEEVFHDGEKFIPDRNPNPHLSFGSGIHLCLGAPLARLEARIAIEEFSKRFRHIEILDTEKVPNEVLNGYKRLVVRLKSNE | soluble
11 | MYEGESVVQLAKRMIEHLLKWGVTDAFTDKQIYTILEKAESTLKPLPAMLQVEHPITIVGDIHGQLDALIRYFDAVGYPPKVQFLFLGDYVDRGAKSFEVSLLLFCYKIRYPHLNVFNELPLCARVGQRILCMHGGISQNCNSWESFKALKKPNTPLTCDEGLQVDLMWADPTQDKCNTFAMNKQRAISVVFGQKGLDDFLKKLGLSLIVRAHEVSQEGFNFLFNKKCVTVFSAPYYCGNDTNCGAIMHVSDSYELSFTVLRPRMIATPENFEIVKLMENNYKGLMVASPDPNRGRHLQSADVPQPTPPSVQLVPPVTKPVEIKKQ | not soluble
12 | MYEWLNALPKAELHLHLEGTLEPELLFALAERNRIALPWNDVETLRKAYAFNNLQEFLDLYYAGADVLRTEQDFYDLTWAYLQKCKAQNVVHVEPFFDPQTHTDRGIPFEVVLAGIRAALRDGEKLLGIRHGLILSFLRHLSEEQAQKTLDQALPFRDAFIAVGLDSSEVGHPPSKFQRVFDRARSEGFLTVAHAGEEGPPEYIWEALDLLKVERIDHGVRAFEDERLMRRLIDEQIPLTVCPLSNTKLCVFDDMSQHTILDMLERGVKVTVNSDDPAYFGGYVTENFHALQQSLGMTEEQARRLAQNSLDARLVK | not soluble
13 | MYHWFALRSVPLVGNVLYRRLLDRFGSPEAVFRASDAELASVRGVSSAVAASIRGHDPRAFAESECERVRRAGVRIVTIRDPDYPPLLLQIADPPPYLYVKGDPTGLEPAVAVVGSRRATVYGRTVTARLAEDLARRGVAVVSGMARGIDTAAHQGALAGEGRTVGVLGCGIDVVYPPENRALFARVADRGALVSEFPLGMGPLAENFPRRNRIISGMCRGVLVVEAAERSGSLITAQMALDQGRDVFAIPGNITSSGSSGTNRLIREGAKLVAGVEDILEELVPRAAAAVAVAPPLPPLPAGEAALMAMFGADPLHIDEIIAKSALTVGEVSAMLLRLELKGVVTQLPGKFFHAN | not soluble
14 | MYKDLEGKVVVITGSSTGLGKSMAIRFATEKAKVVVNYRSKEDEANSVLEEIKKVGGEAIAVKGDVTVESDVINLVQSAIKEFGKLDVMINNAGLENPVSSHEMSLSDWNKVIDTNLTGAFLGSREAIKYFVENDIKGTVINMSSVHEKIPWPLFVHYAASKGGMKLMTETLALEYAPKGIRVNNIGPGAINTPINAEKFADPEQRADVESMIPMGYIGEPEEIAAVAAWLASSEASYVTGITLFADGGMTLYPSFQAGRG | soluble
15 | MYKIVTVKDVVRIPPRMFTMDPKEAAMLVLRDTYEGTYDRDEGVILSIVEVKEVGDGIIVPGDGATYHEVVFDVLVWEPKRDEVVEGTVVDVVPFGAFIRIGPMDGLVHISQLMDDYVVYDERNKQFVGKEKKYLLKIGDAVRARIITVSPKSRVIRENRIGLTMRQPGLGKFEWIEKEKRKEKEGKK | soluble
16 | MYLAYYGFAEKPFQLKPDPNFFFPSRGHKRAAAYLEYGLSQEDGFIIITGDVGAGKTTLMRYLFQKLRQERVAAAQLVSTRLDPDDALRMVAAAFGLSYEGLSKAALLLELERFMRKCERESTRVLLVVDEAQNLLPQTLEELRMLSNFQSDNRPLLQTFLLGQPEFRRTLLGSQMQQLRQRVIATYHLGPLDQAETRAYIEHRLQKAGWNGSPVLQDEIFEVIHNFSAGIPRKINLFCDRLLIMGCLEELQTLGKAEANEVMLDIQKEFDLAVSPELEHHHHHH | soluble
17 | MYLPDDSPAKRLLFQMVGNAINRNTQQLTQDLRAMPNWSLRFVYIVDRNNQDLLKRPLPPGIMVLAPRLTAKHPYDKVQDRNRKLYGRHITLNDGNSVKVVTISAGRDEGPDRDIIWEMFLENLEHHHHHH | soluble
18 | MYLSHFGLEQLPFHLTPDTELFLGLAPHFEAIQTLSAAIEMGEGVSKLTGEVGTGKTMVCRMLLTHLGDEVALIYLPNPMLSGEELRQAVAAELQLDVASPVRVVEQIQTRLIELHQQGKRVVALVDEAQALSDEALETLRLFGNLETEQTKLLQIVLIGQPELDVRLAQHHLRQFRQRITFNANLRPLTQAETEVYIESRLQKAQAPYPLFNATLKKAVWRASQGIPRLINQICHKALLLAWHEQSPLVNQHHLFAAIHDTYDSCKPRFKTPILWGWSKP | not soluble
19 | MYQAIAQAIIKSIMADEYPTKLPTEKVLMAQYNASRNTIRKAIDVVFRHGLLRRVQGSGNFIIKQPQNTKKVLNLSIGFDQSAMVDGGPLVSKVVTFDKVTADETLAQQGNIALGDEVYRVVRLRYLNDILYDLEESYFPRTVVPFLSSESVQHSIFAFLREAYGITGSTTENYVHQVRVDAQRAELIGCPDGDKTLCLEAINYLANGTVFNFSRTFFVYPDLELYYHTENIDLQN | not soluble
20 | MYQEIKGVRVWGDPIENAVDQAVTCAQHGDVEQVLLMADHHKGYSQPVGGVVVYRNQISPSGVGYDIACGNKAVKTNVKYVDIKDQLSKIMDELAQSISFGVGRSNREKVEHDLFDDSDWSVYQEIGKQEHDNLKTLAKKQLGTVGSGNHFVDLFVEEATGDVWVANHFGSRGFGHKTASGFMNLAKGVKFSDKVKGERMEDAPTLLDLDSEIGDMYYRAMQLAGKYAYAGRDYVIQKVLDILQAEAVFSVHNHHNFAWKETHNGEEYVIVRKGATPSAPNQWGFIGGSMGDISVIVRGVDSEENRDAFYSTVHGAGRIMSRTEAAGKMNWKTRTRSGGKITPDQMKQAIKEYGVELRGGGTDESPFVYKNLADVLEAHKQTLSIEHVLKPIGVCMAGEGEFDPYKDMAGDPLEHHHHHH | soluble
21 | MYQETKQFYHLWLLAVQERDEAREHLKQSLVELSRLQECFNTILLSEDQQIPHYSYSETTDETPDHQKLYSYNNFSNESPSRFSSASSIDLVSNSTVYSSPETYDSDCYSLRTLQMGFAFEEKKDFETLVLENIGLGRMLPENGKFQQAIIEAGSLVDSLFITGPIPKWRNPPVQMLSQRPLLSHSIGKWNYGGQGIINRSFSGKMPRLSLMP | soluble
